These results are taken from paper PMC11532467.

This test deals with Glycylhalorhodopsin from Salinarimonas soli (SsGHR) (Salinarimonas soli). Kind of test: crystal structure.

Broadly, the stoichiometry N is the number of molecules, sites or subunits per partner or assembly. In turn, “Glycylhalorhodopsin from Salinarimonas soli (SsGHR) (natural protein)” returned a stoichiometry N of 3.
